According to patent US20240117334A1, “FACTOR B PROTEASES” (Vertex Pharmaceuticals Incorporated, priority 2021, published 2024):
Where a chain is given by its changes, count along the chain named. Numbers in names are those of the source.

B1: chymase C22S/K40M/F41K/F173Y/D175R/S218E/A226R (enzyme)
chain: IIGGTESKPHSRPYMAYLEIVTSNGPSMKCGGFLIRRNFVLTAAHCAGRSITVTLGAHNITEEEDTWQKLEVIKQFRHPKYNTSTLHHDIMLLKLKEKASLTLAVGTLPFPSQFNFVPPGRMCRVAGWGRTGVLKPGSDTLQEVKLRLMDPQACSHYRRFDHNLQLCVGNPRKTKSAFKGDSGGPLLCAGVAQGIVSYGREDAKPPRVFTRISHYRPWINQILQAN
B2: chymase C22S/P38Q/K40M/F41H/V138I/D175S/A190S/V213A/A226R (enzyme)
chain: B1 chain with P26Q, K29H, V125I, Y157F, R159S, A177S, V196A, E201S
B3: chymase C22S/P38Q/K40A/F41Q/V138I/F173S/D175W/A190S/V213A/S218V/A226R (enzyme)
chain: B1 chain with P26Q, M28A, K29Q, V125I, Y157S, R159W, A177S, V196A, E201V
B4: chymase C22S/P38Q/K40M/F41R/L99N/V138I/D175N/A190S/V213A/S218T/A226R (enzyme)
chain: B1 chain with P26Q, K29R, L86N, V125I, Y157F, R159N, A177S, V196A, E201T
B5: chymase C22S/P38Q/K40L/F41R/V138I/F173Y/D175N/A190S/V213A/S218V/A226R (enzyme)
chain: B1 chain with P26Q, M28L, K29R, V125I, R159N, A177S, V196A, E201V
B6: chymase C22S/P38Q/K40A/F41R/L99H/V138I/D175R/A190S/V213A/S218L/A226R (enzyme)
chain: B1 chain with P26Q, M28A, K29R, L86H, V125I, Y157F, A177S, V196A, E201L
B7: chymase C22S/P38Q/K40L/F41R/V138I/F173L/D175R/A190S/V213A/S218V/A226R (enzyme)
chain: B1 chain with P26Q, M28L, K29R, V125I, Y157L, A177S, V196A, E201V
B8: chymase C22S/P38Q/K40M/F41R/L99Y/V138I/F173S/D175S/A190S/V213A/S218T/A226R (enzyme)
chain: B1 chain with P26Q, K29R, L86Y, V125I, Y157S, R159S, A177S, V196A, E201T
B9: chymase C22S/P38Q/K40A/F41K/L99H/V138I/D175S/A190S/V213A/S218V/A226R (enzyme)
chain: B1 chain with P26Q, M28A, L86H, V125I, Y157F, R159S, A177S, V196A, E201V
B10: chymase C22S/P38Q/K40M/F41R/L99Q/V138I/F173Y/D175N/A190S/V213A/S218V/A226R (enzyme)
chain: B1 chain with P26Q, K29R, L86Q, V125I, R159N, A177S, V196A, E201V
B11: chymase C22S/K40L/F41K/L99Q/F173Y/D175N/S218V/A226R (enzyme)
chain: B1 chain with M28L, L86Q, R159N, E201V
B12: chymase C22S/P38Q/K40M/F41R/L99Y/V138I/F173Y/D175S/A190S/V213A/S218V/A226R (enzyme)
chain: B1 chain with P26Q, K29R, L86Y, V125I, R159S, A177S, V196A, E201V
B13: chymase C22S/P38Q/K40A/F41T/L99Y/V138I/F173S/D175H/A190S/V213A/S218I/A226R (enzyme)
chain: B1 chain with P26Q, M28A, K29T, L86Y, V125I, Y157S, R159H, A177S, V196A, E201I
B14: chymase C22S/P38Q/K40A/F41R/L99H/V138I/F173Y/D175N/A190S/V213A/S218V/A226R (enzyme)
chain: B1 chain with P26Q, M28A, K29R, L86H, V125I, R159N, A177S, V196A, E201V
B15: chymase C22S/P38Q/K40V/F41R/V138I/F173L/D175R/A190S/V213A/S218I/A226R (enzyme)
chain: B1 chain with P26Q, M28V, K29R, V125I, Y157L, A177S, V196A, E201I
B16: chymase C22S/P38Q/K40M/F41R/D175N/V213Q/S218V/A226R/F228A (enzyme)
chain: B1 chain with P26Q, K29R, Y157F, R159N, V196Q, E201V, F209A
B17: chymase C22S/P38Q/K40M/F41R/L99Q/V138I/F173Y/D175A/A190S/V213A/S218T/A226R (enzyme)
chain: B1 chain with P26Q, K29R, L86Q, V125I, R159A, A177S, V196A, E201T
B18: chymase C22S/P38Q/K40L/F41R/V138I/F173L/D175H/A190S/V213A/S218V/A226R (enzyme)
chain: B1 chain with P26Q, M28L, K29R, V125I, Y157L, R159H, A177S, V196A, E201V
B19: chymase C22S/P38Q/K40A/F41R/L99Y/V138I/F173L/D175R/A190S/V213A/S218L/A226R (enzyme)
chain: B1 chain with P26Q, M28A, K29R, L86Y, V125I, Y157L, A177S, V196A, E201L
B20: chymase C22S/K40L/F41R/L99G/F173Y/D175R/S218V/A226R (enzyme)
chain: B1 chain with M28L, K29R, L86G, E201V
B21: chymase C22S/P38Q/K40M/F41H/L99N/V138I/F173Y/D175S/A190S/V213A/S218T/A226R (enzyme)
chain: B1 chain with P26Q, K29H, L86N, V125I, R159S, A177S, V196A, E201T
B22: chymase C22S/P38Q/V213Q/A226R/F228A (enzyme)
chain: B1 chain with P26Q, M28K, K29F, Y157F, R159D, V196Q, E201S, F209A
B23: chymase C22S/P38Q/K40M/F41R/L99M/F173Y/D175N/V213Q/S218V/A226R/F228A (enzyme)
chain: B1 chain with P26Q, K29R, L86M, R159N, V196Q, E201V, F209A
B24: chymase C22S/P38Q/K40A/F41R/L99H/V138I/F173Y/A190S/V213A/S218V/A226R (enzyme)
chain: B1 chain with P26Q, M28A, K29R, L86H, V125I, R159D, A177S, V196A, E201V
B25: chymase C22S/P38Q/K40A/F41R/V138I/F173S/D175T/A190S/V213A/S218V/A226R (enzyme)
chain: B1 chain with P26Q, M28A, K29R, V125I, Y157S, R159T, A177S, V196A, E201V
B26: chymase C22S/P38Q/K40M/F41R/L99N/V138I/F173Y/D175T/A190S/V213A/S218V/A226R (enzyme)
chain: B1 chain with P26Q, K29R, L86N, V125I, R159T, A177S, V196A, E201V
B27: chymase C22S/P38Q/K40L/F41R/L99N/V138I/F173Y/D175T/A190S/V213A/S218V/A226R (enzyme)
chain: B1 chain with P26Q, M28L, K29R, L86N, V125I, R159T, A177S, V196A, E201V
B28: chymase C22S/P38Q/K40M/F41T/V138I/D175R/A190S/V213A/S218I/A226R (enzyme)
chain: B1 chain with P26Q, K29T, V125I, Y157F, A177S, V196A, E201I
B29: chymase C22S/P38Q/K40M/F41R/L99F/V138I/F173L/D175N/A190S/V213A/A226R (enzyme)
chain: B1 chain with P26Q, K29R, L86F, V125I, Y157L, R159N, A177S, V196A, E201S

These binders were tested against Human Factor B (human) (UniProt P00751) (assay: cell-based or functional assay).
Chain of Human Factor B (human) (P00751 26-764 limits assumed): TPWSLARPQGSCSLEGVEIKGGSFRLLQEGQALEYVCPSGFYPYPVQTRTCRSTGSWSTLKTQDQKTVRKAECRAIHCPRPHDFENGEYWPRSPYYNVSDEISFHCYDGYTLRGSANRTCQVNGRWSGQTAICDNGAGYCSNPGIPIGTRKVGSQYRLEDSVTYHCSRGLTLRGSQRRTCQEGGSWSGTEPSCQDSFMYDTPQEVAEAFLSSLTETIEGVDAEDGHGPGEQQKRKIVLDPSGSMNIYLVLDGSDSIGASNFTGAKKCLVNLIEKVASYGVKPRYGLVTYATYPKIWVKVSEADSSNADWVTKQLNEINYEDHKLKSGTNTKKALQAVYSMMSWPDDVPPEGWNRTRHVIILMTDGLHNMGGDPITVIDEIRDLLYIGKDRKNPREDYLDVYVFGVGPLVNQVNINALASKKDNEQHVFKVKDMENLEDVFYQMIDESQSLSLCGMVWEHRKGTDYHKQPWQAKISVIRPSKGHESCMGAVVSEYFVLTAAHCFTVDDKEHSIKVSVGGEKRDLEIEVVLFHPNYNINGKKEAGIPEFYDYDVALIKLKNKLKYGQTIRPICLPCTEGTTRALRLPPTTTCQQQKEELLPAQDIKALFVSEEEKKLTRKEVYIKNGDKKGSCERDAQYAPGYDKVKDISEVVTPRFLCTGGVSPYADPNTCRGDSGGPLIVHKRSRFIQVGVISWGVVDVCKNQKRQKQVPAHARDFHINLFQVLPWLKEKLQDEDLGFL

Row | fB Cleavage EC50 [nM] | fB Cleavage, 80% plasma EC50 [nM] | EC50 (Factor B ELISA after digestion) [nM] | Binder
1 | 203 | 4130 |  | B1
2 | 1060 |  |  | B2
3 | 2190 |  |  | B3
4 | 449 |  |  | B4
5 | 36.3 |  | 42.5 | B5
6 | 191 |  |  | B6
7 | 113 |  |  | B7
8 | 10600 |  |  | B8
9 | 142 |  |  | B9
10 | 157 |  |  | B10
11 | 110 | 5670 |  | B11
12 | 103 |  |  | B12
13 | 3130 |  |  | B13
14 | 71.8 |  |  | B14
15 | 169 |  |  | B15
16 | 932 |  |  | B16
17 | 724 |  |  | B17
18 | 314 |  |  | B18
19 | 511 |  |  | B19
20 | 333 | 8620 |  | B20
21 | 561 |  |  | B21
22 | 6210 |  |  | B22
23 | 788 |  |  | B23
24 | 406 |  |  | B24
25 | 1720 |  |  | B25
26 | 92.1 |  |  | B26
27 | 57.6 |  |  | B27
28 | 218 |  |  | B28
29 | 870 |  |  | B29
